Experimental data: US20140178332A1 (published 2014)
Where a chain is given by its changes, count along the chain named. Names may count otherwise. Each block holds one binder with its values, some of them ahead of it.

Assays:
[1] = molecular target: T1, recombinant purified human IL-12 p70 (human, UniProt P29459 23-219); experiment: cell-based or functional assay
T1 sequence 1: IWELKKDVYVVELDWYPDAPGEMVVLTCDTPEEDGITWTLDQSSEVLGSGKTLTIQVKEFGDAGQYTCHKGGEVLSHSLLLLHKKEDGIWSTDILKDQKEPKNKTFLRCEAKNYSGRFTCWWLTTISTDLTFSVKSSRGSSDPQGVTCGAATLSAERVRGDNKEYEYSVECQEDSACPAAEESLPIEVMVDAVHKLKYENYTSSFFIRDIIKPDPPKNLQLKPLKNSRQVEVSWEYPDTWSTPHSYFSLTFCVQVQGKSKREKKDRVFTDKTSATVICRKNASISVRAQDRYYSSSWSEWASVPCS
T1 sequence 2: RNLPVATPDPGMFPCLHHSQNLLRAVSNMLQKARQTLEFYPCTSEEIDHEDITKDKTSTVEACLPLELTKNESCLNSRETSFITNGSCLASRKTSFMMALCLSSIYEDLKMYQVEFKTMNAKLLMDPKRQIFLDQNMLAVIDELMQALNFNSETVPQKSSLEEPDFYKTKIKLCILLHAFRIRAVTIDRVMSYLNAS

[2] = molecular target: T1, recombinant purified human IL-12 p70; experiment: SPR (Biacore) according to Example 1.1.B
Description: The BIACORE assay (Biacore, Inc, Piscataway, N.J.) determines the affinity of antibodies with kinetic measurements of on-, off-rate constants. Binding of antibodies to recombinant purified human IL-12 p70 or recombinant purified human IL-12 p40 were determined by surface plasmon resonance-based measurements with a Biacore® 3000 instrument (Biacore® AB, Uppsala, Sweden) using running HBS-EP (10 mM HEPES [pH 7.4], 150 mM NaCl, 3 mM EDTA, and 0.005% surfactant P20) at 25° C. All chemicals were obtained from Biacore® AB (Uppsala, Sweden) or otherwise from a different source as described in the text. Approximately 5000 RU of goat anti-mouse IgG, (Fcγ), fragment specific polyclonal antibody (Pierce Biotechnology Inc, Rockford, Ill.) diluted in 10 mM sodium acetate (pH 4.5) was directly immobilized across a CM5 research grade biosensor chip using a standard amine coupling kit according to manufacturer's instructions and procedures at 25 μg/ml. Unreacted moieties on the biosensor surface were blocked with ethanolamine. Modified carboxymethyl dextran surface in flowcell 2 and 4 was used as a reaction surface. Unmodified carboxymethyl dextran without goat anti-mouse IgG in flow cell 1 and 3 was used as the reference surface. For kinetic analysis, rate equations derived from the 1:1 Langmuir binding model were fitted simultaneously to association and dissociation phases of all eight injections (using global fit analysis) with the use of Biaevaluation 4.0.1 software. Purified antibodies were diluted in HEPES-buffered saline for capture across goat anti-mouse IgG specific reaction surfaces. Mouse antibodies to be captured as a ligand (25 μg/ml) were injected over reaction matrices at a flow rate of 5 μl/min. The association and dissociation rate constants, kₒₙ (unit M⁻¹ s⁻¹) and koff (unit s⁻¹) were determined under a continuous flow rate of 25 μl/min. Rate constants were derived by making kinetic binding measurements at ten different antigen concentrations ranging from 10-200 nM. The equilibrium dissociation constant (unit M) of the reaction between mouse antibodies and recombinant purified human IL-12 p70 or recombinant purified human IL-12 p40 was then calculated from the kinetic rate constants by the following formula: KD=koff/kₒₙ. Binding is recorded as a function of time and kinetic rate constants are calculated.

[3] = molecular target: T1, recombinant purified human IL-12 p70; experiment: competition ELISA on coated human IL-12, competitor of 0.8 µg/ml biotinylated 8E1, Expt. 3
Description: (§1) MaxiSorp ELISA plates (Nalge Nunc International) were coated overnight at 4° C. with 100 μl/well of 1.0 μg/ml human IL-12 in 0.2 M sodium carbonate-bicarbonate buffer, pH 9.4, washed with Wash Buffer (PBS containing 0.1% Tween 20), and blocked for 1 hr at room temperature with 300 μl/well of SuperBlock Blocking Buffer in TBS (Pierce Chemical Company). […] As isotype controls, 100 μl/well of 100 μg/ml mouse IgG 1/κ (MuFd79) or humanized IgG1/κ (HuFd79) monoclonal antibodies in ELISA buffer was used. As a no-competitor control, 100 μl/well of ELISA Buffer was used. After incubating the plates for 1 hr at room temperature, and washing with Wash Buffer, bound antibodies were detected using 100 μl/well of 1 μg/ml HRP-conjugated streptavidin (Pierce Chemical Company) in ELISA buffer. After incubating for 1 hr at room temperature, and washing with Wash Buffer, color development was performed by adding 100 μl/well of ABTS Peroxidase Substrate/Peroxidase Solution B (KPL, Inc.). After incubating for 5 min at room temperature, color development was stopped by adding 50 μl/well of 2% oxalic acid. Absorbance was read at 415 nm.
(§2) The affinity of 8E1.4, 8E1.5 and 8E1.6 to human IL-12 was analyzed by competition ELISA as described above.

[4] = molecular target: T1, recombinant purified human IL-12 p70; experiment: competition ELISA on coated human IL-12, competitor of 0.8 µg/ml biotinylated 8E1, Expt. 1
Description: as §1, §2

[5] = molecular target: T1, recombinant purified human IL-12 p70; experiment: competition ELISA on coated human IL-12, competitor of 0.8 µg/ml biotinylated 8E1, Expt. 2
Description: MaxiSorp ELISA plates (Nalge Nunc International) were coated overnight at 4° C. with 100 μl/well of 1.0 μg/ml human IL-12 in 0.2 M sodium carbonate-bicarbonate buffer, pH 9.4, washed with Wash Buffer (PBS containing 0.1% Tween 20), and blocked for 1 hr at room temperature with 300 μl/well of SuperBlock Blocking Buffer in TBS (Pierce Chemical Company). After washing with Wash Buffer, a mixture of biotinylated 8E 1 ([…] final concentration) and competitor antibody (8E1 or 8E1.4 or 8E1.5 or 8E1.6) starting at 100 μg/ml final concentration and serially diluted 3-fold) in 100 μl/well of ELISA buffer was added in duplicate. As isotype controls, 100 μl/well of 100 μg/ml mouse IgG 1/κ (MuFd79) or humanized IgG1/κ (HuFd79) monoclonal antibodies in ELISA buffer was used. As a no-competitor control, 100 μl/well of ELISA Buffer was used. After incubating the plates for 1 hr at room temperature, and washing with Wash Buffer, bound antibodies were detected using 100 μl/well of 1 μg/ml HRP-conjugated streptavidin (Pierce Chemical Company) in ELISA buffer. After incubating for 1 hr at room temperature, and washing with Wash Buffer, color development was performed by adding 100 μl/well of ABTS Peroxidase Substrate/Peroxidase Solution B (KPL, Inc.). […] Absorbance was read at 415 nm.
as §2

[6] = molecular target: T1, recombinant purified human IL-12 p70; experiment: competition ELISA on coated human IL-12, competitor of 0.8 µg/ml biotinylated 8E1, average
Description: as §1, §2

Av. IC50 (nM) huIL-12, PHA blast assay [1]: 12 nM
Kd [2]: 1.3 nM
koff [2]: 0.001 s⁻¹
kon [2]: 800000 M⁻¹ s⁻¹
IC50 [3]: 8.33 µg/mL
B1: additional humanized anti-IL-12 antibody 8E1.4 (antibody, IgG1, V domains shown)
VH: EVQLVESGGGLVQPGGSLRLSCAASGFTFSDYGMVWVRQAPGKGLEWVASISSGSSNIYYADTVKGRFTISRDNAKNTLYLQMNSLRAEDTAVYYCARNPYWGQGTLVTVSS
VL: DIQMTQSPSSLSASVGDRVTITCKASQNVGTNVAWYQQKPGKAPKGLIYSASHRYSGVPSRFSGSGSGTDFTLTISSLQPEDFATYYCQQYNSYPLTFGGGTKVEIKR
notes: IgG1/kappa

Kd [2]: 0.046 nM
koff [2]: 8e-05 s⁻¹
kon [2]: 1.7e+06 M⁻¹ s⁻¹
IC50 [4]: 2.25 µg/mL
IC50 [5]: 2.43 µg/mL
IC50 [3]: 1.61 µg/mL
IC50 [6]: 2.1 µg/mL
B2: additional humanized anti-IL-12 antibody 8E1.6 (antibody, V domains shown)
VH: B1 VH with N74D
VL: B1 VL
notes: IgG1/kappa, expressed in 293T/17 cells from pVg1.D.Tt (D356E L358M, L234A L235A) and pVk

Av. IC50 (nM) huIL-12, PHA blast assay [1]: 8 nM
Kd [2]: 0.75 nM
koff [2]: 0.00124 s⁻¹
kon [2]: 1.6e+06 M⁻¹ s⁻¹
IC50 [3]: 13.4 µg/mL
B3: additional humanized anti-IL-12 antibody 8E1.5 (antibody, IgG1, V domains shown)
VH: B1 VH
VL: B1 VL with S60D
notes: IgG1/kappa
